# Target: T1, human PD-L1 protein (coated antigen) (human, UniProt Q9NZQ7 19-238, limits assumed)
# T1 construct: Construct not described; also called PD-L1 antigen; antigenic protein PD-L1
# Experiment: PE-ELISA, crude extract on coated PD-L1
# Experimental: (1) From the cell culture dishes containing phage after 3-4 rounds of screening in Example 2, 1000 individual colonies were selected and inoculated into TB medium containing 100 μg/ml of ampicillin (1 liter of TB medium contains 2.3 g of potassium dihydrogen phosphate, 12.52 g of dipotassium hydrogen phosphate, 12 g of peptone, 24 g of yeast extract, 4 ml of glycerol), after growth to log phase, add a final concentration of […] of IPTG, culture at 28° C. overnight. (2) The crude antibody was obtained by the infiltration method, and the antibody was transferred to an antigen-coated ELISA plate and placed at room temperature for 1 hour. (3) Unbound antibody was washed away with PBST, and a mouse anti-HA tag antibody (anti-mouse anti-HA antibody, purchased from Beijing Kangwei Century Biotechnology Co., Ltd.) was added and placed at room temperature for 1 hour. (4) Unbound antibody was washed away with PBST, and anti-mouse alkaline phosphatase conjugate (goat anti-mouse alkaline phosphatase-labeled antibody, purchased from Amytech Co., Ltd.) was added and placed at room temperature for 1 hour. (5) Wash the unbound antibody with PBST, add alkaline phosphatase coloring solution, and read the absorbance at 405 nm on an ELISA apparatus. (6) When the OD value of the sample well is more than 3 times the OD value of the control well (Ratio+/−>3), it is judged as a positive clone hole. (7) The bacteria of the positive clone well were shaken in a LB liquid containing 100 μg per ml to extract a plasmid and perform sequencing.
# T1 sequence (Q9NZQ7 19-238 limits assumed): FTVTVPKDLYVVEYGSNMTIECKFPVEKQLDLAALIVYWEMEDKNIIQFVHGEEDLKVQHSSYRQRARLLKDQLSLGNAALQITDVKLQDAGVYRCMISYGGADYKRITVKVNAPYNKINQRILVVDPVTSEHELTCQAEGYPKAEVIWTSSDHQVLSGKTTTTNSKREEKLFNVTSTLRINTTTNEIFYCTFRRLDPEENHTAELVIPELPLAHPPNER
row,Binder,OD ratio (experimental group (A405 nm)/control group (A405 nm))
1,"SEQ ID NO 38 (VHH, pMECS-expressed; also called VHH numbered 38) VHH: QVQLQESGGGSVQTGGSLRLSCAASTSIYSNNYMAWFSQAPGKGREGVAAVYIGDGRPYYADSAKGRFTISLDSAKNTVYLQMNSLKPEDTAMYYCAAAPGPLSRNYWYTSANYDYWGQGTQVTVSS",> 20
2,"SEQ ID NO 49 (VHH, pMECS-expressed; also called VHH numbered 49) VHH: QVQLQESGGGSVQTGGSLRLSCAASTSIYSINYMAWFSQAPGKGREGVAAVYIDDGRPYYADSVKGRFTISLDSAKNTVYLQMNSLKPEDTAMYYCAAAPGPLSRNYWYTSANYDYWGQGTQVTVSS",> 20
3,"SEQ ID NO 69 (VHH, pMECS-expressed; also called VHH numbered 69) VHH: QVQLQESGGGSVQTGGSLRLSCAASTSIYSNNYMAWFSQAPGKGREGVAAVYIGDGRPYYADSVKGRFTISLDSAKNTVYLQMNSLKPEDTAMYYCAAAPGPLSHNYWYTSANYDYWGQGTQVTVSS",> 20
4,"SEQ ID NO 40 (VHH, pMECS-expressed; also called VHH numbered 40) VHH: QVQLQESGGGSVQTGGSLRLSCAASTSIYSNNYMAWFSQAPGKGREGVAALYIGDGRPYYADSVKGRFTIALDSAKNTVYLQMNGLKPEDTAMYYCAAAPGPLKHNYWYTSANYDYWGQGTQVTVSS",> 20
5,"SEQ ID NO 42 (VHH, pMECS-expressed; also called VHH numbered 42) VHH: QVQLQESGGGSVQTGGSLTLSCAASTSIYSYNYMAWFRQAPGKGREGVAAVYIGDGRPYYADSVKGRFTISPDSAKNTVYLQMNSLKPEDTAMYYCAAAPGPLSRHYWYTSANYDYWGPGTQVTVSS",> 20
6,"SEQ ID NO 52 (VHH, pMECS-expressed; also called VHH numbered 52) VHH: QVQLQESGGGSVQTGGSLRLSCAASTSIYSNNYMAWFRQAPGKGREGVAAVYVDDGRPYYADSVKGRFTISRDSAKNTVYLQMNSLKPEDTAMYYCAAAPGPLSRHYWYTSANYDYWGPGTQVTVSS",> 20
7,"SEQ ID NO 39 (VHH, pMECS-expressed; also called VHH numbered 39) VHH: QVQLQESGGGSVQTGGSLRLSCAASTSIYSNNYMAWFSQAPGKGREGVAALYIGDGRPYYADSVKGRFTIALDSAKNTVYLQMNGLKPEDTAMYYCAAAPGPLKHNYWYTSANYDYWGQGTQVTVSS",> 20
8,"SEQ ID NO 60 (VHH, pMECS-expressed; also called VHH numbered 60) VHH: QVQLQESGGGSVQTGGSLRLSCAASTSIYSMNYMAWFSQAPGKGREGVAAVYIEDGRPYYADSVKGRFTISPDRAKNTVYLQMNSLKPEDTAMYYCAAAPGPLSRNYWYTSANYDYWGQGTQVTVSS",> 20
9,"SEQ ID NO 48 (VHH, pMECS-expressed; also called VHH numbered 48) VHH: QVQLQESGGGSVQTGGSLRLSCAASTSIYSNNYMAWFSQAPGKGREGVAAVYIDDGRTYYADSVKGRFTISLDSAKNTVYLQMNSLKPEDTAMYYCAAAPGPLSHNYWYASANYDYWGQGTQVTVSS",> 20
10,"SEQ ID NO 75 (VHH, pMECS-expressed; also called VHH numbered 75) VHH: QVQLQESGGGSVQTGGSLRLSCAASTSIYSNNYMAWFRQAPGKGREGVAAVYIGDGRPYYADSAKGRFTISLDSAKNTVYLHMNSLKPEDTAMYYCAAAPGPLSRHYWYTSANYDYWGPGTQVTVSS",> 20
11,"SEQ ID NO 56 (VHH, pMECS-expressed; also called VHH numbered 56) VHH: QVQLQESGGGSVQTGGSLRLSCAASPSIYSANYMAWFSQAPGKGREGVAAVYIGDGRPYYADSVKGRFTISLDSAKSTVYLQMNSLKPEDTAMYYCAAAPGPLSHNYWYTSANYDYWGQGTQVTVSS",> 20
12,"SEQ ID NO 67 (VHH, pMECS-expressed; also called VHH numbered 67) VHH: QVQLQESGGGSVQTGGSLRLSCTASTSIYSNNYMAWFSQAPGKGREGVAAVYIDDGRPYYADSVKGRFTISLDSAKNTVYLQMNSLKPEDTAMYYCAAAPGPLSRNYWYTSANYDYWGQGTQVTVSS",> 20
13,"SEQ ID NO 43 (VHH, pMECS-expressed; also called VHH numbered 43) VHH: QVQLQESGGGSVQTGGSLRLSCAASSSIASNNYMAWFSQAPGKGREGVAAVYIGDGRPYYADSVKGRFTISLDSAKNTVYLQMNSLKPEDTAMYYCAAAPGPLSRNYWYTSANYDYWGQGTQVTVSS",> 20
14,"SEQ ID NO 44 (VHH, pMECS-expressed; also called VHH numbered 44) VHH: QVQLQESGGGSVRTGGSLRLSCAASTSIYSLNYMAWFSQAPGKGREGVAAVYIDDGRPYYADHVKGRFTISLDTAKNTVYLQMNSLKPEDTAMYYCAAAPGPLSRNYWYTSANYDYWGQGTQVTVSS",> 20
15,"SEQ ID NO 57 (VHH, pMECS-expressed; also called VHH numbered 57) VHH: QVQLQESGGGSVQTGGSLRLSCAASTSIYSINYMAWFSQAPGKGREGVAAVYIDDGRPYYADSVKGRFTISLDSAKNTVYLQMNSLKSEDTAMYYCAAAPGPLSRNYWYTSANYDYWGQGTQVTVSS",> 20
16,"SEQ ID NO 47 (VHH, pMECS-expressed; also called VHH numbered 47) VHH: QVQLQESGGGSVQTGGSLRLSCTASTSIYNNNYMAWFSQSPGKGREGVAAVYMDDGRPYYADSVKGRFTISLDSAKNTMYLQMNSLKPEDTAMYYCAAAPGPLSRNYWYTSANYDYWGQGTQVTVSS",> 20
17,"SEQ ID NO 54 (VHH, pMECS-expressed; also called VHH numbered 54) VHH: QVQLQESGGGSVQTGGSLRLSCAPSTSIYDNNYMAWFSQAPGKGREGVAAIYIDDGRPYYADSVKGRFTISLDSAKNTVYLQMNSLKPEDTAMYYCAAAPGPLSHNYWYTSANYDYWGQGTQVTVSS",> 20
18,"SEQ ID NO 66 (VHH, pMECS-expressed; also called VHH numbered 66) VHH: QVQLQESGGGSVQTGGSLRLSCAASTSIYNNNYMAWFSQAPGKGREGVAAVYVGDGRTYYADSVKGRFTISLDSAKNTVYLQMNSLKPEDTAMYYCAAAPGPLSHNYWYTSANYDYWGQGTQVTVSS",> 20
19,"SEQ ID NO 62 (VHH, pMECS-expressed; also called VHH numbered 62) VHH: QVQLQESGGGSVQAGGSLRLSCAASTSIYSNNYMAWFRQTPGKGREGVAAVYIDDGRPYYADSVKGRFTISLDSAKNTVYLQMNSLKPEDTAMYYCAAAPGPLSHDYWYTSANYDYWGPGTQVTVSS",> 20

# Now from value to binder:
row,OD ratio (experimental group (A405 nm)/control group (A405 nm)),Binder
1,> 20,"SEQ ID NO 59 (VHH, pMECS-expressed; also called VHH numbered 59) VHH: QVQLQESGGGSVQTGGSLRLSCACSTSIYSNNYMAWFSQAPGKGREGVAAVYIGDGRPYYTDSVKGRFTISLDSAKNTLYLQMNSLKPEDTAMYYCAAAPGPLSHNYWYTSANYDYWGQGTQVTVSS"
2,> 20,"SEQ ID NO 51 (VHH, pMECS-expressed; also called VHH numbered 51) VHH: QVQLQESGGGSVQTGGSLRLSCTASTSIYSNSYMAWFSQAPGKGREGVAAVYIDDGRPYYADSVKGRFTISLDSAKNTVYLQMNSLKPEDTAMYYCAAAPGPLSRHYWYTSANYDYWGQGTQVTVSS"
3,> 20,"SEQ ID NO 46 (VHH, pMECS-expressed; also called VHH numbered 46) VHH: QVQLQESGGGSVQTGGSLRLSCAASTSIDSNNYMAWFRQAPGKGREGVAAVYIDDGRPYYADSVKGRFTISLDSAKNTVYLQMNSLKPEDTAMYYCAAAPGPLSRHYWYTSANYDYWGPGTQVTVSS"
4,> 20,"SEQ ID NO 41 (VHH, pMECS-expressed; also called VHH numbered 41) VHH: QVQLQESGGGSVQTGGSLRLSCAASTSIYSNNYMAWFRQAPGKGREGVAAVYIGDGRPYYADSAKGRFTISLDSAKNTVYLQMNSLKPEDTAMYYCAAAPGPLSRHYWYTSANYDYWGPGTQVTVSS"
5,> 20,"SEQ ID NO 63 (VHH, pMECS-expressed; also called VHH numbered 63) VHH: QVQLQESGGGSVQTGGSLRLSCAASTSIYSNNYMAWFSQAPGKGREGVAAVYIDDGRPYYADSVKGRFTISLDSAKNTVYLQMNRLKPEDTAMYYCAAAPGPLSHNYWYTSANYDYWGQGTQVTVSS"
6,> 20,"SEQ ID NO 68 (VHH, pMECS-expressed; also called VHH numbered 68) VHH: QVQLQESGGGSVQTGGSLRLSCTCSTSIYSNNYMAWFSQAPGKGREGVAAVYIGDGRPYYADSVKGRFTISLDSAKNTVYLQMNSLKPEDTAMYYCAAAPGPLSHNYWYTSANYDYWGQGTQVTVSS"
7,> 20,"SEQ ID NO 53 (VHH, pMECS-expressed; also called VHH numbered 53) VHH: QVQLQESGGGSVQTGGSLRLSCAASTSIYSNNYMAWFSQAPGKGREGVAAVYIDDGRPYYADSVKGRFTISLDSAKNTVYLQMNSLKPEDTAMYYCAAAPGPLSRNYWYTSANYDYWGQGTQVTVSS"
8,> 20,"SEQ ID NO 55 (VHH, pMECS-expressed; also called VHH numbered 55) VHH: QVQLQESGGGSVQTGGSLRLSCVASTSIFSNNYMAWFSQAPGKGREGVAAVYIGDGRPYYADSVKGRFTISLDSAKNTVYLQMNSLKPEDTAMYYCAAAPGPLSHNYWYTSANYDYWGQGTQVTVSS"
9,> 20,"SEQ ID NO 64 (VHH, pMECS-expressed; also called VHH numbered 64) VHH: QVQLQESGGGSVQTGGSLRLSCAASTSIYSNNYMAWFSQAPGKGREGVAAVYIDDGRPYYADSVKGRFTISLDSAKNTVYLQMNSLKPEDTAMYYCAATPGPLSQHYWYTSANYDYWGQGTQVTVSS"
